In the supplement of paper PMC7125110:
± gives the standard error. Variants at the floor of the assay were thinned out.

B1: glmS ribozyme (parent)
chain: AUAAAAGCGCCAGAACUACAGAAAUGUAGUUGACGAGGAGGAGGUUUAUCGAAUUUUCGGCGGAUGCCUCCAAA

Legend:
Conditions in all cases: with glucosamine-6-phosphate
glucosamine-6-phosphate [1] = variants of: B1; assay: self-cleavage kobs at 640 uM GlcN6P; higher = faster cleavage; RNA array
Method in brief: (§1)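 Sequenced MiSeq chips were the platform: E. coli RNA polymerase transcribed barcoded ribozyme variants on them in situ, and a hybridised Cy3 probe tracked these at 37 °C. After glucosamine-6-phosphate (40 μM to 10 mM) in HEPES/KCl/Mg(OAc)2 buffer was flowed in, tiles were imaged over ~14 h. Signals normalised to baseline and to non-cleaving reference variants were reduced to per-tile medians and fit to one- or two-exponential decays to obtain kobs. kcat and KM were derived through weighted Michaelis–Menten fits across concentrations.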

glucosamine-6-phosphate [2] = variants of: B1; assay: self-cleavage kobs at 2500 uM GlcN6P; higher = faster cleavage; RNA array
Method in brief: as §1

glucosamine-6-phosphate [3] = variants of: B1; assay: self-cleavage kobs at 10000 uM GlcN6P; higher = faster cleavage; RNA array
Method in brief: as §1

Variant | self-cleavage kobs at 640 uM GlcN6P (glucosamine-6-phosphate [1]) | self-cleavage kobs at 2500 uM GlcN6P (glucosamine-6-phosphate [2]) | self-cleavage kobs at 10000 uM GlcN6P (glucosamine-6-phosphate [3])
G13U U31C G43C | < 1e-05 s⁻¹ | < 1e-05 s⁻¹ | < 1e-05 s⁻¹
G13C G38U U56G G63U U69C | < 1e-05 s⁻¹ | < 1e-05 s⁻¹ | –
A14C C16G G29U | 0.000294 ± 5.1e-05 s⁻¹ | 0.000837 ± 0.00017 s⁻¹ | –
A12U C16U G43U | 4.04e-05 ± 1.7e-05 s⁻¹ | 7.33e-05 ± 1.4e-05 s⁻¹ | –
C11G U31G A39C G41C | < 1e-05 s⁻¹ | < 1e-05 s⁻¹ | –
G13U G51U U55A | < 1e-05 s⁻¹ | – | –
A12U G13A G29A U45G | < 1e-05 s⁻¹ | < 1e-05 s⁻¹ | –
G13A A52C G63U | < 1e-05 s⁻¹ | – | –
A12C A42U C68U | 5.31e-05 ± 1.5e-05 s⁻¹ | 0.000111 ± 2.6e-05 s⁻¹ | –
C11G U31G G35C C71U | < 1e-05 s⁻¹ | < 1e-05 s⁻¹ | –
A12U G32C U47G C70A | 0.0007 ± 0.00018 s⁻¹ | – | –
A12C C34G G40U | < 1e-05 s⁻¹ | < 1e-05 s⁻¹ | –
C11U U65G C67G | 0.000877 ± 0.00023 s⁻¹ | – | 0.000136 ± 2.6e-05 s⁻¹
A12G U47A G62U C67G C68G | 0.000122 ± 3.6e-05 s⁻¹ | – | –
A12C G41U U46G | 8.69e-05 ± 1.8e-05 s⁻¹ | 7.37e-05 ± 2.8e-05 s⁻¹ | –
A12U A53G U56C | 0.00708 ± 0.0025 s⁻¹ | 0.0149 ± 0.0066 s⁻¹ | –
C11U A15U G38U G41U U57A | < 1e-05 s⁻¹ | < 1e-05 s⁻¹ | –
A12C G29A C58G U65G C68G | 0.000168 ± 6e-05 s⁻¹ | 8.36e-05 ± 2.2e-05 s⁻¹ | –
C11U G62U | < 1e-05 s⁻¹ | – | < 1e-05 s⁻¹
A12C A33G G37U | < 1e-05 s⁻¹ | < 1e-05 s⁻¹ | –
G13U A14G A42C | < 1e-05 s⁻¹ | < 1e-05 s⁻¹ | –

Variant | self-cleavage kobs at 640 uM GlcN6P (glucosamine-6-phosphate [1]) | self-cleavage kobs at 2500 uM GlcN6P (glucosamine-6-phosphate [2]) | self-cleavage kobs at 10000 uM GlcN6P (glucosamine-6-phosphate [3])
G13C G59U C67A C71U | 5.98e-05 ± 2.4e-05 s⁻¹ | – | –
A14C A42U G63A | < 1e-05 s⁻¹ | – | –
C11U C68G | 0.000314 ± 0.00012 s⁻¹ | – | –
G13U G62C | < 1e-05 s⁻¹ | < 1e-05 s⁻¹ | –
A12C G38A A52U | < 1e-05 s⁻¹ | – | –
A12C A14C G32A G44C C70G | < 1e-05 s⁻¹ | < 1e-05 s⁻¹ | –
A12C G29C G37A U55A | 4.45e-05 ± 1.9e-05 s⁻¹ | – | –
A14C C16U A36G | < 1e-05 s⁻¹ | – | –
A12U A15U C34G U47A | < 1e-05 s⁻¹ | – | –
A12C G35C G44A C50U | < 1e-05 s⁻¹ | < 1e-05 s⁻¹ | –
A12G G21A G43U G59C C70U | < 1e-05 s⁻¹ | < 1e-05 s⁻¹ | –
C11U A12C G13U G38U U56A C71U | < 1e-05 s⁻¹ | < 1e-05 s⁻¹ | –
A12G U55G G62C | < 1e-05 s⁻¹ | – | < 1e-05 s⁻¹
A12C C16A A33U | < 1e-05 s⁻¹ | – | –
G13C G59A | < 1e-05 s⁻¹ | – | < 1e-05 s⁻¹
C11U G13C G37C | < 1e-05 s⁻¹ | < 1e-05 s⁻¹ | < 1e-05 s⁻¹
A12U A48C G51U C71U | < 1e-05 s⁻¹ | – | –
A12C A15C U30G U49G G59A A64G | < 1e-05 s⁻¹ | < 1e-05 s⁻¹ | –
G13C A39G U57C A64U C67U C70U | < 1e-05 s⁻¹ | – | –
A12U A39G U47G U54A U69A | 9.73e-05 ± 2e-05 s⁻¹ | 8.59e-05 ± 2.7e-05 s⁻¹ | –
A12C C70G C71G | 5.18e-05 ± 2.5e-05 s⁻¹ | 4.37e-05 ± 1.9e-05 s⁻¹ | –

Variant | self-cleavage kobs at 640 uM GlcN6P (glucosamine-6-phosphate [1]) | self-cleavage kobs at 2500 uM GlcN6P (glucosamine-6-phosphate [2]) | self-cleavage kobs at 10000 uM GlcN6P (glucosamine-6-phosphate [3])
G13C G43A U49G A52G | < 1e-05 s⁻¹ | < 1e-05 s⁻¹ | –
C11G G44A U55A | < 1e-05 s⁻¹ | < 1e-05 s⁻¹ | –
A12U U31G U45G A53U | 0.00024 ± 6.1e-05 s⁻¹ | 0.00101 ± 0.00033 s⁻¹ | –
G13A C50G U55A C67U | 0.000168 ± 8.1e-05 s⁻¹ | 7.15e-05 ± 2.6e-05 s⁻¹ | –
G13C G40U G60U | < 1e-05 s⁻¹ | – | < 1e-05 s⁻¹
C11U U31C G35C A36U | < 1e-05 s⁻¹ | < 1e-05 s⁻¹ | –
C11G U45C C50G | < 1e-05 s⁻¹ | < 1e-05 s⁻¹ | –
C11U A15C G29C G32U C50G | 0.000512 ± 0.00014 s⁻¹ | 0.000149 ± 3.9e-05 s⁻¹ | –
A12U A15G A42U | 0.000151 ± 4.6e-05 s⁻¹ | – | –
G13U A15G A52C | < 1e-05 s⁻¹ | < 1e-05 s⁻¹ | –
G13U C16U G37U U47G U57A C58U G60U | < 1e-05 s⁻¹ | – | –
A12C C16G A42G G44C U45G U46A C61A G62C | < 1e-05 s⁻¹ | < 1e-05 s⁻¹ | –
A14C A36U A42G | < 1e-05 s⁻¹ | < 1e-05 s⁻¹ | < 1e-05 s⁻¹
C11U C16U A64U C71G | 0.0021 ± 0.00087 s⁻¹ | – | –
A12U A36C C68G | 0.000173 ± 5.8e-05 s⁻¹ | – | –
G13C U56A U65A | < 1e-05 s⁻¹ | < 1e-05 s⁻¹ | –
G13U G32A U46A | 4.17e-05 ± 1.9e-05 s⁻¹ | 8.03e-05 ± 2.3e-05 s⁻¹ | –
G13A A39G A52C | < 1e-05 s⁻¹ | – | –
A12C U31C A48C A52U | < 1e-05 s⁻¹ | < 1e-05 s⁻¹ | –
G13U U56A C71U | 0.000105 ± 1.6e-05 s⁻¹ | 8.21e-05 ± 2.1e-05 s⁻¹ | –
